# B1: OVA-ASIT: allergen-specific immunotherapy: subcutaneous injection of chicken ovalbumin (OVA) in OVA-sensitized mice (protein, UniProt P01012 2-386, looked up)
# Ovalbumin: GSIGAASMEFCFDVFKELKVHHANENIFYCPIAIMSALAMVYLGAKDSTRTQINKVVRFDKLPGFGDSIEAQCGTSVNVHSSLRDILNQITKPNDVYSFSLASRLYAEERYPILPEYLQCVKELYRGGLEPINFQTAADQARELINSWVESQTNGIIRNVLQPSSVDSQTAMVLVNAIVFKGLWEKAFKDEDTQAMPFRVTEQESKPVQMMYQIGLFRVASMASEKMKILELPFASGTMSMLVLLPDEVSGLEQLESIINFEKLTEWTSSNVMEERKIKVYLPRMKMEEKYNLTSVLMAMGITDVFSSSANLSGISSAESLKISQAVHAAHAEINEAGREVVGSAEAGVDAASVSEEFRADHPFLFCIKHIATNAVLFFGRCVSP
# Tests used:
# [1] = test system: T cells (total splenocytes from wild type mice); assay: T cell stimulation in cell culture (viable cells by CellTiter-Glo); assay type: cell-based, mouse; conditions: Tofacitinib 50, 150, 500 ng/ml; IL-2/anti-CD3 low and high stimulation; 4 days
# Procedure: (§2) For the T and B cell stimulation spleen cell from wild type mice were isolated and cells were cultivated in 200 μl/well in RPMI complete in cell culture plates (100,000 cells/well). For T cell stimulation total splenocytes were incubated 4 days with 1 ng/ml II-2 and 1 pg/ml anti-CD3 (Low) or 5 ng/ml II-2 and 10 pg/ml anti-CD3 (High) and three varying concentrations of Tofacitinib 50 ng/ml, 150 ng/ml and 500 ng/ml. For B cell stimulation cells were stimulated 8 days by incubation with 1 pg/ml anti-CD40 and 1L4 1 ng/ml (Low) and with 1 pg/ml anti-CD40 and 5 ng/ml (High) and three varying concentrations of Tofacitinib 50 ng/ml, 150 ng/ml and 500 ng/ml. The number of viable cells was determined by CellTiter-Glo Assay (Promega) and IgE concentration in the supernatant was measured by ELISA.
# [2] = test system: B cells (spleen cells from wild type mice); assay: B cell stimulation in cell culture (CellTiter-Glo; IgE ELISA of supernatant); assay type: cell-based, mouse; conditions: Tofacitinib 50, 150, 500 ng/ml, 8 days
# Procedure: as §2
# human naive CD4+ T cells = assay: Differentiation of human naive CD4+ T cells into FOXP3+ CD4+ T cells (flow cytometry); assay type: cell-based; conditions: for increase of the percentage of FOXP3 expressing cells: average of 3 donors versus polarization control; for FOXP3 producing cells within the living CD4+ T cell population: range of 3 donors, control 17.7-43.6%, 5 days
# Procedure: For the differentiation of human naive CD4^+ T cells into FOXP3^+ CD4^+ T cells, human peripheral blood mononuclear cells were isolated from heparinized whole blood by standard density gradient centrifugation (Lymphoprep, Axis Shield, Oslo, Norway). Naive CD4^+ T cells were isolated using the Naive CD4^+ T cell Kit II (Miltenyi Biotec, Bergisch Gladbach, Germany) and by additional depletion of CD45RO^+ cells (CD45RO microbeads, Miltenyi Biotec). Cells were cultured in RPMI 1640 (Thermo Fisher Scientific, Waltham, Mass. USA) complete (10% FCS, Biochrom, Merck, Berlin, Germany; 2 mM L-glutamine, 100 U/mL Penicillin/Streptomycin, Thermo Fisher Scientific) in 24-well plates at a concentration of 1×10^6 cells/mL at 37° C. After isolation, cells were stimulated with plate-bound anti-CD3 (10 μg/mL; clone UCHT1, BD Biosciences) and 2 μg/mL anti-CD28 (clone CD28.2, BD Biosciences, 2 μg/mL) in solution and cultured for five days. To induce FOXP3 expression, the culture medium was supplemented with 50 U/mL rIL-2 (Novartis, Nurnberg, Germany) and 5 ng/mL TGF-01 (Promokine). Beneath this control, cells were cultured in the presence of different concentrations of Tofacitinib, Rapamycin (Sigma-Aldrich) and Cyclosporine A (Sigma-Aldrich). After three days of culture, half of the medium was removed and replaced by fresh RPMI 1640 complete, supplemented with the same doses of cytokines and agents as at day 0.
# After five days of culture, the cells were washed with ice-cold PBS and stained with LIVE/DEAD Fixable Aqua Dead Cell Stain Kit (Thermo Fisher Scientific) according to the manufacturer's protocol. Moreover the cells were stained 1:300 with anti-CD4-Alexa Flour700 (BioLegend) and 1:100 with anti-FOXP3-eFlour450 (eBiosciences, affymetrix, Frankfurt am Main, Germany) by using the FOXP3/Transcription Factor Staining Buffer Set (eBiosciences, affymetrix) according to manufacturer's protocol. The acquisition of cells was performed with BD FACSDIVA 7.0 on a BD
# LSR Fortessa (BD Biosciences). Data were analyzed with the software FlowJo (Tree Star, Ashland, Oreg.), the lymphocyte population was gated on CD4^+ cells and dead cells were excluded from the analysis.
# [3] = humans; cited from earlier work
# OVA-allergic mice [4] = assay: BAL cell infiltration by flow cytometry in OVA allergic airway inflammation / ASIT model; assay type: in vivo, mouse
# Procedure: For allergic sensitization and allergen-challenge, mice were treated twice by intraperitoneal injection of […] OVA (chicken ovalbumin, Sigma, Germany) and 0.5 mg aluminum hydroxide (alum; 40 mg magnesium/40 mg alum per ml; inject® ThermoFischer, Rockford, USA) in 200 μl phosphate buffered saline (PBS) at day (D) 1 and D-7 as previously described (Aguilar-Pimentel J A, Alessandrini F, Huster K M, Jakob T, Schulz H, Behrendt H, et al. Specific CD8 T cells in IgE-mediated allergy correlate with allergen dose and allergic phenotype, Am J Respir Crit Care Med 2010; 181:7-16, and Fuchs H, Gailus-Durner V, Adler T, Aguilar-Pimentel J A, Becker L, Calzada-Wack J, et al. Mouse phenotyping, Methods 2011; 53:120-35). […]
# Four experimental groups of mice each group consisting of 14 mice were analyzed in parallel (FIGS. 1 and 2): […]
# Flow cytometry was performed to quantify cell surface markers of BAL cells using the following monoclonal antibodies: anti-CD8a, anti-Lytic, anti-CD4, anti-CD62L, anti-CD3, anti-CD25, anti- GO, anti-CD19, anti-CD11 b, anti-CD11 c, and anti-MHC-II (Fuchs H, Gailus-Durner V, Adler T, Aguilar-Pimentel J A, Becker L, Calzada-Wack J, et al. Mouse phenotyping, Methods 2011; 53:120-35). Data were acquired using a LSRII flow cytometer (BD Bioscience) and further analyzed with FACSDiVa (BD Bioscience) and Flowjo V.7.2.2 (Tree star, Ashland, USA) software. […]
# OVA-allergic mice [5] = assay: Plasma immunoglobulins (total IgE ELISA, IgG1 MSD) after challenge in OVA allergic airway inflammation / ASIT model; assay type: in vivo, mouse
# Procedure: (§1) For allergic sensitization and allergen-challenge, mice were treated twice by intraperitoneal injection of […] OVA (chicken ovalbumin, Sigma, Germany) and 0.5 mg aluminum hydroxide (alum; 40 mg magnesium/40 mg alum per ml; inject® ThermoFischer, Rockford, USA) in 200 μl phosphate buffered saline (PBS) at day (D) 1 and D-7 as previously described (Aguilar-Pimentel J A, Alessandrini F, Huster K M, Jakob T, Schulz H, Behrendt H, et al. Specific CD8 T cells in IgE-mediated allergy correlate with allergen dose and allergic phenotype, Am J Respir Crit Care Med 2010; 181:7-16, and Fuchs H, Gailus-Durner V, Adler T, Aguilar-Pimentel J A, Becker L, Calzada-Wack J, et al. Mouse phenotyping, Methods 2011; 53:120-35). Subsequently, mice were challenged by inhalative exposure to OVA aerosol (1% in PBS) for 10 min once a day at D-49, 52 and 55. 24 h after the last challenge (D-56) blood samples were collected and animals sacrificed to obtain bronchoalveolar lavage (BAL) samples.
# For allergen-specific-immunotherapy (ASIT), animals were treated by subcutaneous injection of 1 mg OVA D-22, and 0.5 mg OVA D-29. For treatment with Tofacitinib, two doses per day were administrated on D-20 to D-24, and D-27 to D-31. […]
# OVA-allergic mice [6] = assay: Cytokine profile in BAL fluid (MSD multiplex) in OVA allergic airway inflammation / ASIT model; assay type: in vivo, mouse
# Procedure: as §1
# For allergen-specific-immunotherapy (ASIT), animals were treated by subcutaneous injection of 1 mg OVA D-22, and 0.5 mg OVA D-29. For treatment with Tofacitinib, two doses per day were administrated on D-20 to D-24, and D-27 to D-31.
# Flow cytometry was performed to quantify cell surface markers of BAL cells using the following monoclonal antibodies: anti-CD8a, anti-Lytic, anti-CD4, anti-CD62L, anti-CD3, anti-CD25, anti- GO, anti-CD19, anti-CD11 b, anti-CD11 c, and anti-MHC-II (Fuchs H, Gailus-Durner V, Adler T, Aguilar-Pimentel J A, Becker L, Calzada-Wack J, et al. Mouse phenotyping, Methods 2011; 53:120-35). Data were acquired using a LSRII flow cytometer (BD Bioscience) and further analyzed with FACSDiVa (BD Bioscience) and Flowjo V.7.2.2 (Tree star, Ashland, USA) software. Cytokines from BAL were analyzed by a multiplex measurement of proinflammatory cytokines from Meso Scale Discovery electrochemiluminescence assay (MSD, USA).
# OVA-allergic mice [7] = assay: Systemic (plasma) cytokine profile in OVA allergic airway inflammation / ASIT model; assay type: in vivo, mouse; conditions: after OVA-aerosol challenge
# Procedure: as §1, with “samples. […]” for “samples.”
# Mouse blood samples were collected before and after challenge as previously described (Aguilar-Pimentel J A, Alessandrini F, Huster K M, Jakob T, Schulz H, Behrendt H, et al. Specific CD8 T cells in IgE-mediated allergy correlate with allergen dose and allergic phenotype, Am J Respir Crit Care Med 2010; 181:7-16; Fuchs H, Gailus-Durner V, Adler T, Aguilar-Pimentel J A, Becker L, Calzada-Wack J, et al. Mouse phenotyping, Methods 2011; 53:120-35 and Fulton R J, McDade R L, Smith P L, Kienker L J, Kettman J R, Jr. Advanced multiplexed analysis with the FlowMetrix system, Clin Chem 1997; 43:1749-56) by puncturing the retro-orbital plexus (Li-heparin-coated tubes, KADE, Numbrecht, Germany) under isoflurane anesthesia. […] Plasma total IgE was measured using a classical immunoassay isotope-specific sandwich ELISA. […] Signal intensities of labeled total murine IgE were measured at 450 nm in a standard microwell ELISA reader and results reported in ng/ml based on a standard curve of purified IgE. […]
molecule,measurement,setting,value
"C[C@@H]1CCN(C(=O)CC#N)C[C@@H]1N(C)c1ncnc2[nH]ccc12 [Tofacitinib, 3-((3R, 4R)-4-methyl-3-[methyl-(7H-pyrrolo[2,3-d]pyrimidin-4-yl)-amino]-piperidin-1-yl)-3-oxopropionitrile]",proliferation of T cells,[1],significantly decreased
same,proliferation of B cells,[2]; anti-CD40/IL4 low and high stimulation,significantly decreased
same,IgE production by B cells,"[2]; anti-CD40/IL4 stimulation, supernatant ELISA",decreased
same,increase of the percentage of FOXP3 expressing cells,human naive CD4+ T cells; 0.1 μM,about 2.4 (+/−0.7) fold
same,FOXP3 producing cells within the living CD4+ T cell population,human naive CD4+ T cells; 0.1 μM,57.2-77.1%
same,increase of the percentage of FOXP3 expressing cells,human naive CD4+ T cells; 1 μM,~2.5 (+/−1.3) fold
same,FOXP3 producing cells within the living CD4+ T cell population,human naive CD4+ T cells; 1 μM,51.1-70.6%
same,FOXP3-enhancing effect,human naive CD4+ T cells; 10 μM,diminished
same,cytotoxicity,"human naive CD4+ T cells; 10 μM, data not shown",induced cytotoxicity
same,mean terminal plasma half-life,[3],3.2 h
CO[C@H]1C[C@@H]2CC[C@@H](C)[C@@](O)(O2)C(=O)C(=O)N2CCCC[C@H]2C(=O)O[C@H]([C@H](C)C[C@@H]2CC[C@@H](O)[C@H](OC)C2)CC(=O)[C@H](C)/C=C(\C)[C@@H](O)[C@@H](OC)C(=O)[C@H](C)C[C@H](C)/C=C/C=C/C=C/1C [Rapamycin],FOXP3 expression relative to control,human naive CD4+ T cells; concentration not given,1.3 fold
B1,suppression of total broncho-alveolar lavage cell infiltration,"OVA-allergic mice [4]; compared to OVA-allergic mice, BAL 24 h after last challenge (D-56)",88%
same,eosinophil BAL cell infiltration,"OVA-allergic mice [4]; median [1st, 3rd quantile], OVA-allergic mice 81%, BAL at D-56",63.18%
same,total IgG1 levels,"OVA-allergic mice [5]; median [quantiles], OVA-allergic mice 0.8267 mg/ml",1.936 mg/mL
same,reduction of total IgE-levels,OVA-allergic mice [5]; versus OVA-allergic mice,43.5%
same,IFN-γ in BAL fluid,OVA-allergic mice [6]; barely detectable,marginally reduced
same,IL-2 in BAL fluid,OVA-allergic mice [6]; barely detectable,marginally reduced
same,IL-5 secretion in BAL,"OVA-allergic mice [6]; mouse, in vivo",increase
same,secretion of Th2-cytokine IL-4 in BAL,"OVA-allergic mice [6]; mouse, in vivo",reduced
same,inhibition of IL-1 beta secretion in BAL fluid,OVA-allergic mice [6]; versus OVA-allergic mice,80%
same,inhibition of IL-6 secretion in BAL fluid,OVA-allergic mice [6]; versus OVA-allergic mice,82%
same,inhibition of TNF-a secretion in BAL fluid,OVA-allergic mice [6]; versus OVA-allergic mice,84%
same,inhibition of chemokine CXCL1 in BAL fluid,OVA-allergic mice [6]; versus OVA-allergic mice,21%
same,effects on IL-2 plasma levels,OVA-allergic mice [7],no significant effects
same,inhibition of IL-1beta plasma levels,OVA-allergic mice [7],41%
same,reduction of IL-6 plasma levels,OVA-allergic mice [7],44%
